The source of these data is PMC3633241 (The Febs Journal, 2013).

The data set deals with the molecule itself. In words: SDS/PAGE with western blotting. (In general: In western blotting, separated proteins are transferred to a membrane and probed.)

B1: Pho89–Myc-His6 (full-length recombinant Saccharomyces cerevisiae high-affinity phosphate transporter Pho89 fusion protein) (natural protein, S. cerevisiae, UniProt P38361 1-574, looked up)
chain: MALHQFDYIFAIAMLFAFLDAFNIGANDVANSFASSISSRSLKYWQAMVLAGLCEFLGAVLAGARVSGTIKNNIIDSSIFTNDPAVLMLTMTSALIGSSCWLTFATAIGMPVSTTHSIVGGTIGAGIAAGGANGVVWGWSGVSQIIASWFIAPILAGAIAAIVFSISRFSVLEVKSLERSIKNALLLVGVLVFATFSILTMLIVWKGSPNLHLDDLSETETAVSIVLTGAIASIVYFIFFYPFYRRKVLDQDWTLKLIDIFRGPSFYFKSTDDIPPMPEGHQLTIDYYEGRRNLGTTVSVEDEENKAASNSNDSVKNKEDIQEVDLVRTETEPETKLSTKQYWWSLLKQGPKKWPLLFWLVISHGWTQDVIHAQVNDRDMLSGDLKGMYERSKFYDNRVEYIYSVLQAITAATMSFAHGANDVANATGPLSAVYVIWKTNTIGAKSEVPVWVLAYGGVALVIGCWTYGYNIIKNLGNKMILQSPSRGFSIELAVAITTVMATQLGIPTSTTQIAVGGIVAVGLCNKDLKSVNWRMVAWCYSGWFLTLPIAGLIAGIINGIILNAPRFGVEYQMT
On to B1, for which the binding result is “binds”.
